{"source": "patent US11723946B2", "about": "“Methods for regulating transcription of multiple genes and expression of multiple targets” (CHINA MEDICAL UNIVERSITY, priority 2014, dated 2023)", "molecules": {"B1": {"name": "present polypeptide: polypeptide comprising the amino acid sequence of SEQ ID No. 1; made by peptide synthesis, recombinant expression or extraction from Momordica charantia (peptide, listed as Artificial synthsis)", "chain": "SRCQGKSSWPQLVGSTGAAAKAWIERENPRVRAVIIKVGSGATKDFRCDRVRVWVTERGIVARPPTIG"}}, "key": {"[1]": {"tested_on": "NF-κB", "experiment": "Whole animal bioluminescent imaging, LPS-induced NF-κB/luc transgenic mice", "assay_type": "in vivo", "excerpt": "Mice: The NF-κB/luc transgenic mice bearing the luciferase transgene driven by two copies of the NF-kappaB regulatory elements were mated with wild-type FVB mice to generate the hybrid NF-κB/luc transgenic offspring for the experiments. Whole animal bioluminescent imaging: 15 mice with age of 6˜8 weeks were randomly divided into three groups. The group 1 was the blank group; the group 2 was control group; and the group 3 was experimental group. The mice of the group 2 and the group 3 were administration with 100 ul of […] lipopolysaccharide (LSP) solution to induce the inflammation in the mice by intraperitoneal injection (IP injection). As the blank control, the mice of group 1 were administered with 100 μl of PBS by IP injection. After the LPS-injection for 5 minutes, the mice of the group 3 were further injected with 20 μl solution that contains 0.5 mg/Kg of the present polypeptide by IP injection. In contrast, the mice of the group 2 and the […] were injected with 20 μul of water. […] For in vivo imaging mice were anesthetized with isoflurane and injected intraperitoneally with 150 mg/kg luciferin. After 10 minutes, the mice were placed face up and imaged for 1 min with the camera set at the highest sensitivity by IVIS Imaging System-200 (Series Xenogen Hopkinton, Mass.). The photons emitted from the tissues were quantified by Living Images software (Xenogen, Hopkinton, Mass.) and were shown in FIG. 4A. In the FIG. 4A, the Y-axis shown the signal strength (photons/sec) that stands for total photons diffused from the mice."}, "[2]": {"tested_on": "4-hydroxynonenal, malondialdehyde", "experiment": "IHC of lipid oxidation products in hepatic tissue, high fat diet mice", "assay_type": "in vivo", "conditions": "10 mmol/kg peritoneal injection twice weekly, 4 weeks, group 3 vs group 2", "experimental": "30 wild-type FVB mice were randomly divided into three groups, wherein the mice of the group 1 were the blank group that were fed with normal condition. The mice of the control group (the group 2) and the experimental group (the group 3) were fed with high fat diet. […] The mice in the group 2 and the group 3 were peritoneally injected with 100 μl of PBS.\nAfter the administration, livers in the mice of the each group were collected for the histology sections. The hepatic histology of livers in the mice of the each group was […] for H&E staining and oil red-O staining to examined the lipid accumulation in liver, respectively. Furthermore, the product of lipid oxidation in hepatocytes was examined by IHC staining described in example 3 with antibodies against 4-hydroxynonenal ([…]) or malondialdehyde (MDA) on the hepatic tissues of the each group."}, "[3]": {"tested_on": "Muscle (IGF and adipocytokine signaling pathway genes)", "conditions": "2.5 mmol/kg daily, 7 days", "description": "The wild-type FVB mice were divided into the control group and the experimental group, wherein the mice in the experimental group were daily administered with 20 μl peptide-containing solution that contains 2.5 mmol/kg of the present peptide for 7 days. Moreover, the mice in the control group were daily administrated with 20 μl PBS solution for 7 days.\nAfter the daily administration, the tissues of column, muscle, fat pad, liver and kidney were collected for analyzing the expression of multiple targets by system biology analysis. Herein, the altered expressions of the targets in the genome were determined by using DNA microarray which is a well-established tool for systematic biology analysis. Furthermore, the results of the DNA microarray were further categorized and analyzed by bioinformatics analysis to determine the effect and affected signaling pathways of the present polypeptide.\n(1) RNA preparation: The total RNA was extracted from the tissue by using RNeasy Mini Kit (Qiagen, Valencia, Calif., USA). The amount of the extracted total RNA was measured by Beckman DU800 spectrophotometer (Beckman Coulter, Fullerton, Calif., USA). In the next step, the quality of the RNA sample with A260/A280 ratio more than 1.8 was further evaluated by Agilent 2100 bioanalyzer (Agilent Technologies, Santa Clara, Calif., USA). When with the RNA integrity number of the sample is more than 8.0, it would be analyzed by the following microarray analysis.\n(2) DNA microarray analysis: The procedure of DNA microarray analysis was conducted according to the reference (Cheng, 2007). Briefly, 5 μg of total RNA was amplified by in vitro transcription using MessageAmp™ aRNA kit (Ambion). In the following, the fluorescence dye, Cy5, was chemically labeled on the amplified RNA (aRNA). After the labeling, the fluorescence labeled aRNA was hybridized with Whole Genome OneArray™ in hybridization buffer (Phalanx Biotech Group, Taiwan) on cover slide. Following the hybridization reaction at 50° C. over-night, the non-specific binding on the chip was washed by three washing steps. The washed chip was dried by centrifugation and was scanned by Axon 4000 scanner (Molecular Devices, Sunnyvale, Calif., USA) to measure the fluorescence signals. The fluorescence intensity of Cy5 on each spots was further analyzed by genepix 4.1 (Molecular Devices). First, the signals of each spot were adjusted by deducting the intensity of background. In the next step, the spots including the probes of internal controls or the spots with the signal-to-noise ratios less than 0 would be removed. The qualified spots were normalized by limma package which is belonged to R console (Smyth, 2005)."}, "[4]": {"experiment": "Fat accumulation in genetic deficient mice with massive abdominal fat", "assay_type": "in vivo", "experimental": "The mice were divided into control group and experimental group. […] In addition, the mice in the control group were peritoneally injections with 100 ul of PBS.\nDuring the treatment period, the body weight and dietary intake of the mice were recorded at the regular time points. After the treatment, the gross views of whole animals were recorded by photographing. In the following, the fat pads of the mice were collected for the measurement of fat pad weight. The histological examination was performed to determine the number and size of the adipocytes in the mice of the both groups. Furthermore, the percentage of body fat was calculated according the formulation: (fat weight/body weight)×100%, and shown in table 4."}, "[5]": {"tested_on": "TNF-α", "experiment": "Immunohistochemistry staining of organs, LPS-induced mice", "assay_type": "in vivo", "conditions": "group 3 vs group 2 (LPS)", "experimental": "(§1) Immunohistochemistry (IHC) would be known by an ordinary person skilled in the art. The organs were collected from the mice of the each group for paraffin embedding and histology section. The parafilm-embedded organs were cut into […] sections, deparaffinized in xylene and then rehydrated in graded alcohol. Endogenous peroxidase was quenched with 3% hydrogen peroxide in methanol for 15 mins and the nonspecific binding was blocked with 1% bovine serum albumin at room temperature for 1 hour. The blocked sections were further incubated with 50-folds diluted mouse monoclonal antibodies against p56, TNF-α or IL-1β proteins at 4° C. for 16-18 hours, respectively and then incubated with biotinylated secondary antibodies (Zymed Laboratories, South San Francisco, Calif.) that against the Fc fragment of the co-responding first antibody at room temperature for 20 minutes. Finally, the slides were incubated with avidin-biotin complex reagent and stained with 3,3′-diaminobenzidine according to manufacturer's protocol (Histostain®-Plus Kit, Zymed Laboratories, South San Francisco, Calif.)."}, "[6]": {"tested_on": "IL-1β", "sequence (P10749 118-269)": "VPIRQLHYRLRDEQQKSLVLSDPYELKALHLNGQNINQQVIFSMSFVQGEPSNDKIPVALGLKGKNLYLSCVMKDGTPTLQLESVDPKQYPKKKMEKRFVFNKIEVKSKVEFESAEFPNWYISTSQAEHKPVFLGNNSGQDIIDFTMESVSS", "experiment": "Immunohistochemistry staining of organs, LPS-induced mice", "assay_type": "in vivo", "conditions": "group 3 vs group 2 (LPS)", "experimental": "as §1"}, "[7]": {"experiment": "Survival, diabetes incidence and retinopathy in NOD mice", "assay_type": "in vivo", "conditions": "20 weeks; for Incidence of diabetes, mice/mice: control 2/6; for Diabetes-induced retinopathy, mice/mice: control 3/6; for Survival rate, mice/mice: control 4/6", "experimental": "23 mice were divided into four groups with different administrations for 20 weeks, wherein 6 mice of the group 1 were control mice that were daily orally administrated with 20 μl of PBS. 6 mice of the group 2 were daily orally administrated with 20 μl of 0.01 umol/kg solution that contained the present polypeptide comprising the amino acid sequence of SEQ ID No. 1. 6 mice of the group 3 were daily orally administered with 20 μl of 0.1 umol/kg solution that contained the present polypeptide comprising the amino acid sequence of SEQ ID No. 1. 5 mice of the group 4 were daily orally administrated with 20 μl of 1 umol/kg solution that contained the present polypeptide comprising the amino acid sequence of SEQ ID No. 1.\nDuring the administration period, the survival rate, incidence of diabetes and diabetes-induced retinopathy in the each group were measured and shown in table 5. After the administration, the blood samples were collected for serological and biochemical analysis."}, "[8]": {"experiment": "Muscle histology (H&E) in genetic deficient mice", "assay_type": "in vivo", "conditions": "2.5 nmol/kg peritoneal twice a week, 4 weeks; vs control mice", "excerpt": "Collecting the muscles from the mice of the both groups stated in example 5. The collected muscles were for histological examination. In the histology examination, the cell number and cellular size of the muscular tissue were examined by H&E staining and microscopy observation."}, "[9]": {"conditions": "Adipocytokine signaling pathway, Down-regulated"}, "[10]": {"conditions": "IGF signaling pathway, Up-regulated"}, "[11]": {"conditions": "experimental group vs control group, in words"}, "[12]": {"conditions": "Group 2: 0.01 umol/kg daily oral"}, "[13]": {"conditions": "Group 3: 0.1 umol/kg daily oral"}}, "data": [{"molecule": "B1", "values": [{"measurement": "suppression of luminescent intensity", "setting": "[1]; group 3 (LPS + 0.5 mg/Kg polypeptide IP)", "value": "about 38%"}, {"measurement": "average of luciferin value", "setting": "[1]; group 3: LPS + 0.5 mg/Kg polypeptide IP, 4 hours after injection", "value": "19.82×10^7 photons/sec"}, {"measurement": "products of lipid oxidation (HNE, MDA) in hepatic tissue", "setting": "[2]", "value": "obviously decreased"}, {"measurement": "Fold, Acsl1", "setting": "[3]; [9]", "value": 4.56, "unit": "folds"}, {"measurement": "Fold, Akt1", "setting": "[3]; [9]", "value": 1.57, "unit": "folds"}, {"measurement": "Fold, Cd36", "setting": "[3]; [9]", "value": 2.42, "unit": "folds"}, {"measurement": "Fold, Nfkbia", "setting": "[3]; [9]", "value": 2.55, "unit": "folds"}, {"measurement": "Fold, Prkag1", "setting": "[3]; [9]", "value": 1.93, "unit": "folds"}, {"measurement": "Fold, Ptpn11", "setting": "[3]; [9]", "value": 2.31, "unit": "folds"}, {"measurement": "Fold, Stat3", "setting": "[3]; [9]", "value": 1.55, "unit": "folds"}, {"measurement": "Fold, Adprt1", "setting": "[3]; [10]", "value": "Up-regulated 1.9 folds"}, {"measurement": "Fold, Cabin1", "setting": "[3]; [10]", "value": "Up-regulated 2.4 folds"}, {"measurement": "Fold, Igfbp5", "setting": "[3]; [10]", "value": "Up-regulated 1.9 folds"}, {"measurement": "Fold, Irs1", "setting": "[3]; [10]", "value": "Up-regulated 3.7 folds"}, {"measurement": "Fold, Map2k2", "setting": "[3]; [10]", "value": "Up-regulated 1.6 folds"}, {"measurement": "Fold, Mdk", "setting": "[3]; [10]", "value": "Up-regulated 3.4 folds"}, {"measurement": "Fold, Mmp13", "setting": "[3]; [10]", "value": "Up-regulated 3.0 folds"}, {"measurement": "Fold, Myh1", "setting": "[3]; [10]", "value": "Up-regulated 3.2 folds"}, {"measurement": "Fold, Nfatc3", "setting": "[3]; [10]", "value": "Up-regulated 1.5 folds"}, {"measurement": "Fold, Pik3r1", "setting": "[3]; [10]", "value": "Up-regulated 1.8 folds"}, {"measurement": "Fold, Rps6kb1", "setting": "[3]; [10]", "value": "Up-regulated 4.7 folds"}, {"measurement": "Fold, Spp1", "setting": "[3]; [10]", "value": "Up-regulated 3.6 folds"}, {"measurement": "Fold, Twist 1", "setting": "[3]; [10]", "value": "Up-regulated 2.1 folds"}, {"measurement": "Fold, Vegfa", "setting": "[3]; [10]", "value": "Up-regulated 1.5 folds"}, {"measurement": "Fat weight", "setting": "[4]; Experimental mice, 2.5 nmol/kg peritoneal twice a week, 4 weeks, control 2.53 ± 0.19", "value": "1.90 ± 0.41", "unit": "g"}, {"measurement": "Body weight at end point", "setting": "[4]; Experimental mice, 2.5 nmol/kg peritoneal twice a week, 4 weeks, control 71.95 ± 6.25", "value": "72.54 ± 7.24", "unit": "g"}, {"measurement": "Body fat", "setting": "[4]; Experimental mice, (fat weight/body weight)×100%, control 3.68 ± 0.16", "value": "2.74 ± 0.21", "unit": "%"}, {"measurement": "fat weight compared with control group", "setting": "[4]; [11]", "value": "obviously decreased"}, {"measurement": "percentage of body fat compared with control group", "setting": "[4]; [11]", "value": "obviously decreased"}, {"measurement": "brown zone (active TNF-α signal) in tissue, IHC", "setting": "[5]", "value": "obviously less than the group 2"}, {"measurement": "brown zone (active IL-1β signal) in tissue, IHC", "setting": "[6]", "value": "obviously less than the group 2"}, {"measurement": "Incidence of diabetes, mice/mice", "setting": "[7]; [12]", "value": "0/6"}, {"measurement": "Diabetes-induced retinopathy, mice/mice", "setting": "[7]; [12]", "value": "0/6"}, {"measurement": "Survival rate, mice/mice", "setting": "[7]; [12]", "value": "6/6"}, {"measurement": "Incidence of diabetes, mice/mice", "setting": "[7]; [13]", "value": "0/6"}, {"measurement": "Diabetes-induced retinopathy, mice/mice", "setting": "[7]; [13]", "value": "1/6"}, {"measurement": "Survival rate, mice/mice", "setting": "[7]; [13]", "value": "6/6"}, {"measurement": "Incidence of diabetes, mice/mice", "setting": "[7]; Group 4: 1 umol/kg daily oral", "value": "1/5"}, {"measurement": "Diabetes-induced retinopathy, mice/mice", "setting": "[7]; Group 4: 1 umol/kg daily oral", "value": "1/5"}, {"measurement": "Survival rate, mice/mice", "setting": "[7]; Group 4: 1 umol/kg daily oral", "value": "5/5"}, {"measurement": "muscular dystrophy (H&E histology of muscle)", "setting": "[8]", "value": "improved the muscular dystrophy"}]}]}
